Assay results from PMC3037030.

Substrate: CCCCC/C=C\C/C=C\C/C=C\C/C=C\CCCC(=O)O
Assay: radiometric acyl-CoA synthetase assay
Assay type: biochemical, Rattus norvegicus
Details: ATP, Mg2+

B1: Acsl3 (Rattus norvegicus) (protein)
chain: MNNHVSSTPSTMKLKQTIHPILLYFIHFIISLYTILTYIPFYFLCESKQEKPNHIKAKPVSSKPDSAYRSVNSMDGLASVLYPGCDTLDKVFMYAKNKFKDKRLLGTREILNEEDEIQPNGKVFKKVILGHYNWLSYEDVFIRALDFGNGLQMLGQKPKANIAIFCETRAEWMIAAQACFMYNFQLVTLYATLGGPAIVHGLNETEVTNIITSKELLQTKLKDIVSLVPRLRHIITVDGKPPTWSEFPKGVIVHTMAAVQALGVKADVDKKAHSKPLPSDIAVIMYTSGSTGIPKGVMISHSNIIASITGMARRIPRLGEEDVYIGYLPLAHVLELSAELVCLSHGCRIGYSSPQTLADQSSKIKKGSKGDTSVLKPTLMAAVPEIMDRIYKNVMNKVNEMSAFQRNLFILAYNYKMEQISKGCSTPLCDRFVFRNVRRLLGGNIRVLLCGGAPLSATTQRFMNICFCCPVGQGYGLTESTGAGTITEVWDYNTGRVGAPLVCCEIKLKNWEEGGYFNTDKPHPRGEILIGGQNVTMGYYKNEAKTKADFFEDENGQRWLCTGDIGEFDPDGCLKIIDRKKDLVKLQAGEYVSLGKVEAALKNLPLIDNICAYANSYHSYVIGFVVPNQKELTELARTKGFNGTWEELCNSSEMENEVLKVLSEAAISASLEKFEIPLKIRLSPDPWTPETGLVTDAFKLKRKELKTHYQADIERMYGRK
Which results are given for B1?
Km: 48 µM; Vmax: 0.008 µmol/min/mg; Vmax/Km: 3e-05 min⁻¹
